Results reported in patent US11396522B2, “Bis-acetal-based substrates for imaging exo-glycosidase activity” (ALECTOS THERAPEUTICS INC., priority 2017, dated 2022).

Tests used:
Format in all cases: biochemical, human
[1] = substrate: CN(C)c1ccc(/N=N/c2ccc(C(=O)NCc3cn(CCOCCOC(CC(=O)NCCNc4cccc5c(S(=O)(=O)O)cccc45)O[C@@H]4O[C@H](CO)[C@@H](O)[C@H](O)[C@H]4O)nn3)cc2)cc1; experiment: In vitro kinetic assay with GBA1; details: other: 20 nM GBA1, initial rates
[2] = substrate: CC(=O)N[C@H]1[C@H](O[C@@H](OCCOCCn2cc(CNC(=O)c3ccc(/N=N/c4ccc(N(C)C)cc4)cc3)nn2)[C@@](C)(Br)C(=O)NCCNc2cccc3c(S(=O)(=O)O)cccc23)O[C@H](CO)[C@@H](O)[C@@H]1O; experiment: In vitro kinetic assay with hOGA; details: other: PBS, 37° C., recombinant hOGA
Protocol: (§1) For some experiments, fluorescence kinetic assays were performed using a Varian Cary Eclipse Spectrophotometer set for 335/493 nm excitation/emission wavelengths. Slits were set at 10 nm and the detector was set on Medium voltage. Enzymatic reactions with human OGA were carried out in PBS at 37° C. and were started by addition of hOGA (WT, Full-length, expressed in E. coli. as previously described) in a total volume of 160 μL (Starna sub-micro Fluorometer cuvette). For measurements of rates using different concentrations of substrates, a hOGA concentration of 100 nM was used. For hOGA titration, 25 μM of Glyco-BABS were added to various concentration of hOGA. […] EDANS standard curve was established using endpoint fluorescence measurements of serial dilutions of EDANS in the relevant buffer using the same instrument parameters. Inner-Filter effect measurements were carried out in cuvette by measuring fluorescence of several concentrations of EDANS in presence of various concentrations of GlcNAc-BABS. Kinetics with Glc-BABS and GBA enzymes (GBA1 and GBA3 purchased from R&D Systems), kinetics with GALC (R&D systems) and Gal-BABS, pH stability, quenching efficiency, some inner-filter effect experiments and lysates experiments were carried out using a Molecular Devices SpectraMax i3× plate reader. […]

[3] = substrate: CC(=O)N[C@H]1[C@H](O[C@@H](OCCOCCn2cc(CNC(=O)c3ccc(/N=N/c4ccc(N(C)C)cc4)cc3)nn2)[C@@](C)(O)C(=O)NCCNc2cccc3c(S(=O)(=O)O)cccc23)O[C@H](CO)[C@@H](O)[C@@H]1O; experiment: In vitro kinetic assay with hOGA; details: other: PBS, 37° C., recombinant hOGA
Protocol: as §1

B1: GBA1 (Homo sapiens) (protein)
chain: ARPCIPKSFGYSSVVCVCNATYCDSFDPPTFPALGTFSRYESTRSGRRMELSMGPIQANHTGTGLLLTLQPEQKFQKVKGFGGAMTDAAALNILALSPPAQNLLLKSYFSEEGIGYNIIRVPMASCDFSIRTYTYADTPDDFQLHNFSLPEEDTKLKIPLIHRALQLAQRPVSLLASPWTSPTWLKTNGAVNGKGSLKGQPGDIYHQTWARYFVKFLDAYAEHKLQFWAVTAENEPSAGLLSGYPFQCLGFTPEHQRDFIARDLGPTLANSTHHNVRLLMLDDQRLLLPHWAKVVLTDPEAAKYVHGIAVHWYLDFLAPAKATLGETHRLFPNTMLFASEACVGSKFWEQSVRLGSWDRGMQYSHSIITNLLYHVVGWTDWNLALNPEGGPNWVRNFVDSPIIVDITKDTFYKQPMFYHLGHFSKFIPEGSQRVGLVASQKNDLDAVALMHPDGSAVVVVLNRSSKDVPLTIKDPAVGFLETISPGYSIHTYLWRRQ
notes: purchased R&D Systems
kcat/Km [1]: 130 M⁻¹ s⁻¹

B2: human O-GlcNAcase (hOGA) (Homo sapiens) (protein)
chain: MVQKESQATLEERESELSSNPAASAGASLEPPAAPAPGEDNPAGAGGAAVAGAAGGARRFLCGVVEGFYGRPWVMEQRKELFRRLQKWELNTYLYAPKDDYKHRMFWREMYSVEEAEQLMTLISAAREYEIEFIYAISPGLDITFSNPKEVSTLKRKLDQVSQFGCRSFALLFDDIDHNMCAADKEVFSSFAHAQVSITNEIYQYLGEPETFLFCPTEYCGTFCYPNVSQSPYLRTVGEKLLPGIEVLWTGPKVVSKEIPVESIEEVSKIIKRAPVIWDNIHANDYDQKRLFLGPYKGRSTELIPRLKGVLTNPNCEFEANYVAIHTLATWYKSNMNGVRKDVVMTDSEDSTVSIQIKLENEGSDEDIETDVLYSPQMALKLALTEWLQEFGVPHQYSSRQVAHSGAKASVVDGTPLVAAPSLNATTVVTTVYQEPIMSQGAALSGEPTTLTKEEEKKQPDEEPMDMVVEKQEETDHKNDNQILSEIVEAKMAEELKPMDTDKESIAESKSPEMSMQEDCISDIAPMQTDEQTNKEQFVPGPNEKPLYTAEPVTLEDLQLLADLFYLPYEHGPKGAQMLREFQWLRANSSVVSVNCKGKDSEKIEEWRSRAAKFEEMCGLVMGMFTRLSNCANRTILYDMYSYVWDIKSIMSMVKSFVQWLGCRSHSSAQFLIGDQEPWAFRGGLAGEFQRLLPIDGANDLFFQPPPLTPTSKVYTIRPYFPKDEASVYKICREMYDDGVGLPFQSQPDLIGDKLVGGLLSLSLDYCFVLEDEDGICGYALGTVDVTPFIKKCKISWIPFMQEKYTKPNGDKELSEAEKIMLSFHEEQEVLPETFLANFPSLIKMDIHKKVTDPSVAKSMMACLLSSLKANGSRGAFCEVRPDDKRILEFYSKLGCFEIAKMEGFPKDVVILGRSL
notes: started by addition of hOGA (WT, Full-length, expressed in E. coli. as previously described); made in house; host or cells: E. coli
kcat/Km [2]: 263 M⁻¹ s⁻¹
kcat/Km [3]: 519 M⁻¹ s⁻¹
